Experimental data from patent US20090246248A1, “COATING COMPOSITIONS HAVING IMPROVED PERFORMANCE” (priority 2008, published 2009).
Numbered stars: 1 amine (or outer) side, 2 acyl side, 3 side chain; on linkers, the order of the positions; unused ones are H or OH. Square brackets hold non-standard residues; d marks the D form. Ends that are not written are not given here. * marks the point of attachment. (AUD)6 = six aminoundecanoic acid units between the two peptides, O=C(CCCCCCCCCCNC(=O)CCCCCCCCCCNC(=O)CCCCCCCCCCN[*:1])NCCCCCCCCCCC(=O)NCCCCCCCCCCC(=O)NCCCCCCCCCCC(=O)[*:2]; Biotin = O=C1N[C@H]2[C@H](CS[C@H]2CCCCC(=O)*)N1; P10 = 10 unit polyethylene glycol polymer; Myristoyl = CCCCCCCCCCCCCC(=O)*; Lauroyl = CCCCCCCCCCCC(=O)*; linker = not defined here; (MP)2 = not defined here; Aun = NCCCCCCCCCCC(=O)O; AEEA = NCCOCCOCC(=O)O

B1: SEQ ID NO 149 (peptide)
peptide: [code s][code s]GGVGGWALFETLRGKEV[code s][code r][P10]YFRAFRKFVKPFKRAFKGSSGK(Biotin)-NH2
modifications: not fully specified; printed as ssGGVGGWALFETLRGKEVsr-P10-YFRAFRKFVKPFKRAFK-GSSGK-B-NH2
B2: SEQ ID NO 150 (peptide)
peptide: SWWGFWNGSAAPVWSRGSSG[code s][code s]GGVGGWALFETLRGKEV[code s][code r]GSSGK(Biotin)-NH2
modifications: not fully specified; printed as SWWGFWNGSAAPVWSR-GSSG-ssGGVGGWALFETLRGKEVsr-GSSGK-B-NH2
B3: SEQ ID NO 147 (peptide)
peptide: YFRAFRKFVKPFKRAFK[(MP)2][code s][code s]GGVGGWALFETLRGKEV[code s][code r]GSSGK(Biotin)-NH2
modifications: not fully specified; printed as YFRAFRKFVKPFKRAFK-(MP)2-ssGGVGGWALFETLRGKEVsr-GSSGK-B-NH2; reading uncertain
B4: SEQ ID NO 153 (peptide)
peptide: [code s][code s]GGVGGWALFETLRGKEV[code s][code r][P10]SWWGFWNGSAAPVWSRGSSGK(Biotin)-NH2
modifications: not fully specified; printed as ssGGVGGWALFETLRGKEVsr-P10-SWWGFWNGSAAPVWSR-GSSGK-B-NH2

Key:
[1] = format: binding; details: 18 hour incubation in 10% BSA+10 mM guanidinium chloride; FIG. 1
Text: In this example, illustrated are unexpected beneficial properties of the composition of the invention, including but not limited to, one or more improved biophysical properties. Such one or more unexpected beneficial properties of a composition of the invention may comprise an increase in stability. An increase in stability may comprise any one or more of resistance to chemical denaturation, resistance to proteolytic degradation, improved retention to a substrate (e.g., resistance to being competed off a substrate to which it is bound, such as by proteins or other biomolecules found in body tissues). Thus, to ascertain a beneficial property of a composition of the invention, it is compared to the properties of a component of the composition-namely, a substrate-binding peptide by itself (e.g., without fatty acid covalently coupled thereto). An assay was developed that, from our direct comparisons (see, e.g., discussion of FIG. 2 below, and Example 7 herein), mimicked the effect of incubation of substrate-binding peptide with human plasma on stability of binding of a substrate-binding peptide to its substrate. The assay utilized incubations in the presence of 10% bovine serum album (BSA) with 10 mM guanidinium chloride. The high BSA concentration mimics the elevated albumin content of human plasma, and the guanidinium chloride is used to compete with any charged interactions involved in binding of the substrate-binding peptide to its substrate.
In this assay, two immunoassay plates were prepared for a “side-by-side” comparison of binding of a test sample (substrate-binding peptide or composition of the invention) to its substrate with or without the presence of 10% BSA with 10 mM guanidinium chloride. The wells of each 96-well polypropylene plate were incubated with 350 μl BSA 1% in PBS for 30 minutes at 20° C. with 500 rpm shaking. To each well was added one acetone-cleaned 3/32″ 316LVM stainless steel bead, followed by addition of dilutions in PBS of the test sample in a range of concentrations starting from 10 μM. Final volume in each well was 200 μl. The plates were incubated for 1 hour at 20° C. with 500 rpm shaking to allow for the binding to occur. The beads were washed 3 times with 250 μl PBS using a plate washer. […]
In the immunoassay for detecting binding without the presence of 10% BSA with 10 mM guanidinium chloride, added to each well was 200 μl of streptavidin AP (AP is alkaline phosphatase) at 1/200 in TBS+1% BSA. […] When color has developed, each well was read at OD405 nm in endpoint mode using a plate reader. […] When color has developed, the wells were read at OD405 nm in endpoint mode using a plate reader. […]

[2] = Critical micelle concentration (methyl orange assay); format: physicochemical; details: pH 7 PBS, A484
Description: Formation of a composition of the invention, and evidence of macromolecular network formation, may be monitored or quantified by any means known in the art. In this example, macromolecular formation was detected using a standard assay for determining critical micelle concentration (“CMC”). In this assay, a solution containing the composition of the invention (in a range of concentrations in pH 7 phosphate buffered saline (“PBS”)) was mixed with a solution of methyl orange (0.04 mM in PBS), and the absorbance of the mixture was measured at 484 nm (A484). CMC is the concentration at which a sharp decrease in absorbance at A484 is observed, a change in the optical properties of methyl orange when trapped in a hydrophobic phase, such as caused by self-association as a macromolecular network (Table 7, “CMC”). Also included in this assay were an assay control peptide having an amino acid sequence of SEQ ID NO:122 (Table 7, “Control”), and compound 119 (a PEGylated peptide, the peptide having an amino acid sequence of SEQ ID NO:122, as described in more detail in Example 6 herein).

[3] = Vancomycin loading onto titanium bead (HPLC of HCl eluate); details: mixture with vancomycin, 30 mins 20° C., washed with PBS
Description: The experimental procedure used for the embodiments described above was as follows. […] All three components were mixed and then applied to the metal bead. […] All three components were mixed and then applied to the metal bead. […] The mixtures were applied to the metal beads and incubated for 30 mins at 20° C. with 700 rpm shaking. The beads were washed three times with 350 ul PBS. Beads were analyzed as follows: 200 ul of 100 mM HCl was added to each bead and incubated for 30 mins at 20° C. with 1,000 rpm shaking. The eluate from each bead was analyzed by HPLC using Phenomenex Luna 3 um column, 50×4.60 mm. Output was compared to a standard curve for vancomycin to determine the amount of vancomycin retained onto the metal bead.

[4] = molecular target: T1, GDF-7 (R&D SYSTEMS); assay: GDF-7 capture on peptide-coated sutures; anti-GDF-7 antibody/AP, pNPP read-out; relative EC50; lower limit told of the whole group
T1 sequence (Q7Z4P5 322-450, species assumed, looked up): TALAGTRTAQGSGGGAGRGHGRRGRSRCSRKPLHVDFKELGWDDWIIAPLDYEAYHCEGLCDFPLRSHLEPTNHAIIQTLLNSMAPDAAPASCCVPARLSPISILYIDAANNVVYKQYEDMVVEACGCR

| Molecule | CMC [2] | EC50 [4] | other results |
| --- | --- | --- | --- |
| 119: Fmoc-NH-(PEG)27-CO2H covalently coupled to a peptide having the amino acid sequence of SEQ ID NO:122 (PEGylated peptide) (SSHRTNHKKNNPKKKNKTRGSSGK; also: Fmoc-NH-(PEG)27-CO2H covalently coupled, site not given here) [Compound 119] | >>10 μM |  | retention of binding compared to substrate-binding peptide alone (SEQ ID NO:122) [1]: failed to promote retention |
| 120: amino acid sequence YWAWAYAW (SEQ ID NO:129) covalently coupled to a peptide having the amino acid sequence of SEQ ID NO:122 (YWAWAYAWSSHRTNHKKNNPKKKNKTRGSSGK) [Compound 120] |  |  | retention of binding compared to substrate-binding peptide alone (SEQ ID NO:122) [1]: failed to promote retention |
| AUD-AUD-AUD-AUD-SEQ ID NO:122 ([Aun][Aun][Aun][Aun]SSHRTNHKKNNPKKKNKTRGSSGK) [Compound 122] | 0.123 µM |  | retention of binding compared to substrate-binding peptide alone (SEQ ID NO:122) [1]: significantly improved retention |
| LAU-SEQ ID NO: 122 (Lauroyl-SSHRTNHKKNNPKKKNKTRGSSGK) [Compound 126] | 0.37 µM |  |  |
| MA-AHx-SSCLIDIYGVCHNFDAY-miniPeg-miniPeg-YFRAFRKFVKPFKRAFKGSSK(Biotin) [SEQ ID NO: 165] |  |  | Vancomycin Load [3]: 1,700 pmol/cm2 |
| MA-Ahx-SSCLIDIYGVCHNFDAY-miniPeg-miniPeg-HKKNNPKKKNKTRGSSK(Biotin) [SEQ ID NO: 164] |  |  | Vancomycin Load [3]: 278 pmol/cm2 |
| MYR-SEQ ID NO: 122 (Myristoyl-SSHRTNHKKNNPKKKNKTRGSSGK) [Compound 125] | 0.123 µM |  |  |
| MYR-linker-SEQ ID NO: 122 ({Myristoyl-linker}-SSHRTNHKKNNPKKKNKTRGSSGK; reading uncertain) [Compound 127] | 0.123 µM |  |  |
| PALM-PALM-PALM-linker-SEQ ID NO: 122 (SSHRTNHKKNNPKKKNKTRGSSGK; also: three palmitoyl groups, place not given here, linker, place and nature not given here) [Compound 129] | 0.123 µM |  |  |
| Pyrene-butyric-SSCLIDIYGVCHNFDAY-miniPeg-miniPeg-HKKNNPKKKNKTRGSS-K(Biotin) [SEQ ID NO: 166] |  |  | Vancomycin Load [3]: 173 pmol/cm2 |
| RRRRRRR-PSSHRTNHKKNNPKKKNKTRGP-RRRRRRR-K(biotin) [SEQ ID NO: 156] |  |  | Vancomycin Load [3]: <10 pmol/cm2 |
| SSHRTNHKKNNPKKKNKTRGSSGK [SEQ ID NO:122, assay control peptide] | >>10 μM |  |  |
| SSSCLIDMYGVCHNFDGAYDSSRG-miniPeg-miniPeg-SSHRTNHKKNNPKKKNKTRGSSGK (SSSCLIDMYGVCHNFDGAYDSSRG[AEEA][AEEA]SSHRTNHKKNNPKKKNKTRGSSGK; not fully specified (bridges); printed as SSSCLIDMYGVCHNFDGAYDSSRG-miniPeg-miniPeg-SSHRTNHKKNNPKKKNKTRGSSGK; cysteine pairing not given here) [SEQ ID NO: 163] |  |  | Vancomycin Load [3]: 54 pmol/cm2 |
| [MYR]2-K-linker-SEQ ID NO: 122 (SSHRTNHKKNNPKKKNKTRGSSGK; also: lysine bearing two myristoyl groups, place not given here, linker, place and nature not given here) [Compound 128] | 0.123 µM |  |  |
| [code s][code s]GGVGGWALFETLRGKEV[code s][code r][(MP)2]YFRAFRKFVKPFKRAFKGSSGK(Biotin)-NH2 (not fully specified; reading uncertain) [SEQ ID NO 148] |  | > 20 nM |  |
| B1 |  | > 20 nM |  |
| B2 |  | > 20 nM |  |
| [code s][code s]GGVGGWALFETLRGKEV[code s][code r]GSSGYFRAFRKFVKPFKRAFKGSSGK(Biotin)-NH2 (not fully specified) [SEQ ID NO 155] |  | > 20 nM |  |
| B3 |  | > 20 nM |  |
| B4 |  | > 20 nM |  |
| [code s][code s]GGVGGWALFETLRGKEV[code s][code r][(MP)2]SWWGFWNGSAAPVWSRGSSGK(Biotin)-NH2 (not fully specified; reading uncertain) [SEQ ID NO 152] |  | > 20 nM |  |
| [code s][code s]GGVGGWALFETLRGKEV[code s][code r][(AUD)6]SWWGFWNGSAAPVWSRGSSGK(Biotin)-NH2 (not fully specified) [SEQ ID NO 154] |  | > 20 nM |  |
